Reference: article PMC8596017, “Evolutionary mode for the functional preservation of fast-evolving Drosophila telomere capping proteins” (Open Biology, 2021)
One block for each molecule: values may come before it.

Assays:
[1] = tested on: Ver (wild type);Moi (Drosophila melanogaster;Drosophila melanogaster); experiment: BLI; settings: PBS + 0.05% Tween 20, BLI and EMSA: PBS (137 mM NaCl, 2.7 mM KCl, 10 mM Na2HPO4, 1.8 mM KH2PO4) + 0.05% Tween 20, EMSA 15 min at room temperature, 20 fmol ssDNA, pull-down: 4 C …
[2] = tested on: Ver (wild type);Moi (Drosophila melanogaster;Drosophila melanogaster); experiment: pull-down; settings: reference; BLI and EMSA: PBS (137 mM NaCl, 2.7 mM KCl, 10 mM Na2HPO4, 1.8 mM KH2PO4) + 0.05% Tween 20, EMSA 15 min at room temperature, 20 fmol ssDNA; pull-down: 4 C …
[3] = molecular target: M1-Ver (Ver with the Group 1 uncharacterized helices deleted), Flag-tagged (D. melanogaster) (UniProt Q9VTZ2); experiment: co-IP; Flag immune-affinity purification: heparin-sepharose fractions loaded on anti-FLAG M2 affinity matrix, washed with buffer I (25 mM Tris HCl pH 7.5, 100 mM NaCl, 1 mM CaCl2, 1 mM MgCl2) or PBS, eluted with 3× Flag peptide
[4] = molecular target: M3-Ver (Ver with the putative DNA binding surface, Group 3, partially deleted), Flag-tagged (D. melanogaster) (UniProt Q9VTZ2); experiment: as above
[5] = molecular target: T1, Verrocchio (Ver), wild type, Flag-tagged (D. melanogaster, UniProt Q9VTZ2 1-214); experiment: as above; settings: partners not purified
T1 construct: Verrocchio (Ver), Terminin subunit of D. melanogaster; also called wild-type Ver; source: Arctic express cells (DE3), co-expressed with Moi-HA from a bicistronic pET vector; cell lysate, heparin-sepharose fractions, anti-FLAG M2 eluate; not shown: Flag, N-terminal, kept
T1 sequence (looked up): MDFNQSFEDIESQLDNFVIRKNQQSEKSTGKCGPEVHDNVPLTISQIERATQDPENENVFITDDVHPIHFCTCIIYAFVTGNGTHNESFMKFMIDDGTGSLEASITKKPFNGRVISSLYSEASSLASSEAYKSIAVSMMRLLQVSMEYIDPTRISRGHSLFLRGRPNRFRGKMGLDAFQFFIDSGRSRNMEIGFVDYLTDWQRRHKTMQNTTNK

Molecule: 80 nt ssDNA
Kd ([1]; Kd1, heterogeneous ligand (2:1) model): 0.129 µM
Kd ([1]; Kd2, heterogeneous ligand (2:1) model): 1.57 µM
binding signal (fraction of Moi eluted from ssDNA) [2]: 1

stoichiometry N [3]: 1
stoichiometry N [4]: 1
stoichiometry N [5]: ~1
B1: Modigliani (Moi), HA-tagged at the C-terminus (natural protein, D. melanogaster, UniProt B7Z0L8 1-178, looked up)
chain: MSLVPEASTSRAPKYCYFFKTLLVEELELETSYHNLHYGQCALIGRLAFKANQYRLENVRVKCLPKKYSLGEGTVSLLILGLTHDKVVENRVSTGRYCIVRGEVVLHNVQHPKGAKLTAGGVYDKINSLSNDPLAQKQYLSALLATYRPAIDLWYIQVIDRAEDLLTRRLEMRSLIEK
notes: DTL/Modigliani (Moi), Terminin subunit of D. melanogaster; also called DTL; source: Arctic express cells (DE3), co-expressed with Ver from a bicistronic pET vector; cell lysate, heparin-sepharose fractions, anti-FLAG M2 eluate; not shown: HA, C-terminal, kept
